{
  "source": "patent US7704703B2",
  "about": "“Arf and Hdm2 interaction domains and the methods of use thereof” (St. Jude Children's Research Hospital, Inc., priority 2002, dated 2010)",
  "molecules": {"B1": {"name": "Hdm2 210-275: fragment of Hdm2 corresponding to residues 210-275 of SEQ ID NO:8 (protein, listed as Homo sapiens)", "chain": "SSSSESTGTPSNPDLDAGVSEHSGDWLDQDSVSDQFSVEFEVESLDSEDYSLSEEGQELSDEDDEV"}, "B2": {"name": "Hdm2 277-350: Texas Red labeled Hdm2 deletion construct containing residues 277-350 (protein)", "chain": "QVTVYQAGESDTDSFEEDPEISLADYWKCTSCNEMNPPLPSHCNRCWALRENWLPEDKGKDKGEISEKAKLENS"}},
  "key": {"mArfN37": {"target": "T1, mArfN37 (Mus musculus, UniProt Q64364)", "T1 construct": "mouse p19^Arf corresponding to residues 1-37 (mArfN37); made in house; host or cells: E. coli BL21(DE3) (purified 'in a similar manner' to the Hdm2 fragments)", "T1 sequence (Q64364 1-37 limits assumed)": "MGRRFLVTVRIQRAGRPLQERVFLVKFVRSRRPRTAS", "experiment": "Surface plasmon resonance: Hdm2 fragments and peptides binding to immobilized His-tagged mArfN37", "conditions": "Hdm2 protein fragments as analyte; no binding to control surface", "procedure": "Surface Plasmon Resonance. Binding studies were performed using a Biacore 3000 surface plasmon resonance (SPR) instrument (Biacore, Inc.). A Tetra-His™ Antibody (Qiagen, Inc.; Cat. #34670) was covalently attached to a carboxymethylated gold surface (C-1 chip; Biacore, Inc.). The carboxymethyl groups on the surface were activated with N-ethyl-N′-(3-dimethylaminopropyl) carbodiimide (EDC) and N-hydroxysuccinimide (NHS) and the antibody was attached at pH 7.4 in 20 mM sodium phosphate buffer, 150 mM NaCl (PBS). Reactive sites remaining on the surface were blocked by reaction with ethanolamine. […] Binding was measured by flowing the non-His-tagged analyte through the reference and ligand-containing flow cells in sequence. […] Changes in the SPR response due to solvent differences and the injection process were monitored by injection of HBS-N buffer alone. […]\nSmall segments of Arf and Hdm2 participate in Arf/Hdm2 interactions. […] However, because mArfN37 is a relatively small polypeptide, it was determined whether it could bind a correspondingly small segment of Hdm2. To test this hypothesis and to monitor Arf/Hdm2 binding reactions quantitatively, Hdm2 constructs were prepared spanning amino acids 210-304 of SEQ ID NO:8 and 210-275 of SEQ ID NO:8 and then it was determined whether they could bind mArfN37 using surface plasmon resonance (SPR). […]"}, "GFP-p19^Arf": {"target": "T2, GFP-p19^Arf (Mus musculus, UniProt Q64364)", "T2 construct": "expressed in transfected cells; host or cells: NIH 3T3 Arf-/- cells", "T2 sequence (Q64364 1-169)": "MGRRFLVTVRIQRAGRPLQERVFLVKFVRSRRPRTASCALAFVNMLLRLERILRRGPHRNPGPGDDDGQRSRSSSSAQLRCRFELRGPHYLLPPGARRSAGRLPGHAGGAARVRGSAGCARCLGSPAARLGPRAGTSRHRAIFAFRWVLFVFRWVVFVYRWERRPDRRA", "experiment": "Microinjection and live cell imaging of Texas Red labeled Hdm2 constructs in NIH 3T3 cells lacking Arf", "type": "cell-based", "conditions": "transfected with GFP-p19^Arf", "procedure": "Fluorescent labeling. Proteins for fluorescence microimaging studies were covalently modified using an amine-reactive, sulfosuccinimidyl ester of TEXAS RED® (C31H29S2N2O6Cl1) (Molecular Probes, Inc., Cat. # C-1171). In brief, purified Hdm2-derived proteins were dialyzed into 100 mM sodium bicarbonate buffer, pH 8.3 at 2-4 mg/ml. The Texas Red™ dye was dissolved in dimethylsulfoxide at 10 mg/ml. Protein and dye 3:1 (vol:vol) were reacted for 1 hour at room temperature followed by purification using size-exclusion chromatography (NAP 5 G-25 columns, Amersham Pharmacia Biotech, Inc.). […]\nCell culture and microinjection. […] GFP-Arf positive cells were then located and co-injected with TEXAS RED® (C31H29S2N2O6C1 labeled Hdm2 polypeptides (2 mg/ml in 20 mM Tris-HCl, 100 mM NaCl, pH 7.0) using a Micromanipulator 5171/Transjector 5246 (Eppendorf, AG) in media supplemented with 10 mM HEPES, pH 7.2 to buffer cell media during injection and imaging. Representative cells were imaged over time. An Axiovert 135 TV inverted fluorescence microscope with an automated stage controller (Carl Zeiss, Inc.) and circulating water bath heater (Fisher) was used for both microinjection and imaging. Images were acquired with a Zeiss 40×NA=1.30 oil objective and MicroMax CCD camera (Princeton Instruments Inc.) operated with MetaMorph Version 4.01 imaging software. […]"}},
  "data": [
    {"molecule": "B1", "values": [
      {"measurement": "binding of Hdm2 fragment to His-tagged mArfN37 immobilized on SPR biosensor surface", "setting": "mArfN37", "value": "bind tightly"},
      {"measurement": "localization after nuclear microinjection in the presence of GFP-p19^Arf", "setting": "GFP-p19^Arf", "value": "nucleolar localization"}
    ]},
    {"molecule": "B2", "values": [
      {"measurement": "localization after nuclear microinjection in the presence of GFP-p19^Arf", "setting": "GFP-p19^Arf", "value": "localized in the nucleoplasm rather than in nucleoli"}
    ]}
  ]
}
